Measurements as given in patent US20130244255A1 (published 2013).
Values joined by “and” are separate entries in the source; they are usually repeats but may differ in a detail not shown here. Identical values can stand only once.

Key:
[1] = target: T1, GPNMB (CG56972) as expressed by human cell lines (human, UniProt Q14956 23-492); assay: cell-based or functional assay
T1 sequence: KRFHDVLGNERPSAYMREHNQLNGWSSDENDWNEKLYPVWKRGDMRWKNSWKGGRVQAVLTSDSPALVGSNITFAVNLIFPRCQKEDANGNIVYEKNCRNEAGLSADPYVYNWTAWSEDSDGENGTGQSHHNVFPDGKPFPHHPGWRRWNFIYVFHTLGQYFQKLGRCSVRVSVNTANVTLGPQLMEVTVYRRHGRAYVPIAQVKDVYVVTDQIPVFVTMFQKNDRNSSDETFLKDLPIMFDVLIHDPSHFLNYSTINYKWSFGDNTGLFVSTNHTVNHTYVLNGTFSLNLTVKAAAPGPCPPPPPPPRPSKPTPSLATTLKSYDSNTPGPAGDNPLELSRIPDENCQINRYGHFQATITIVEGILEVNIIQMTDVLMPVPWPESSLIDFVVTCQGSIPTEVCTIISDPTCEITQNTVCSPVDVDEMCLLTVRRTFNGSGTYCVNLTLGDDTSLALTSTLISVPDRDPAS

[2] = target: T1, GPNMB (CG56972) as expressed by human …; assay: FACS on UACC-62 cells, antibody 1 ug/mL
Protocol: The specificity of anti-GPNMB antibodies to cell membrane-bound GPNMB protein expressed by melanoma cancer cell line, UACC-62 was analyzed by FACS analysis. […] Cells were washed twice with PBS (Ca and Mg free), incubated with Versene at 37° C. until cells detached, counted and aliquoted at 1 million cells per assay tube. Cells were then washed twice and resuspended in ice-cold FACS buffer (0.01 M HEPES, 0.15M NaCl, 0.1% NaN₃ and 4% FBS). Primary antibody at 1 μg/mL was added to the cells. Cells were incubated on ice for 30 min, washed 2-3 times and resuspended in 1 mL of ice-cold FACS buffer. R-PE-conjugated goat anti-human antibody (Jackson ImmunoResearch Laboratory) at 1:100 dilution was added and cells were incubated on ice for 30 min. After washing 3 times with 1 mL of ice-cold FACS buffer, cells were fixed with 0.5-1 mL of 1% formaldehyde in PBS and analyzed by flow cytometry.

[3] = target: T2, Recombinant human GPNMB extra-cellular domain (ECD) with a C-terminus V5-HIS tag (human, UniProt Q14956 23-492); assay: ELISA on plates coated with recombinant GPNMB (His and V5 tagged), detection with anti-FLAG M2-HRP
T2 construct: Expressed in HEK293; also called GPNMB-V5His; GPNMB-soluble
T2 sequence: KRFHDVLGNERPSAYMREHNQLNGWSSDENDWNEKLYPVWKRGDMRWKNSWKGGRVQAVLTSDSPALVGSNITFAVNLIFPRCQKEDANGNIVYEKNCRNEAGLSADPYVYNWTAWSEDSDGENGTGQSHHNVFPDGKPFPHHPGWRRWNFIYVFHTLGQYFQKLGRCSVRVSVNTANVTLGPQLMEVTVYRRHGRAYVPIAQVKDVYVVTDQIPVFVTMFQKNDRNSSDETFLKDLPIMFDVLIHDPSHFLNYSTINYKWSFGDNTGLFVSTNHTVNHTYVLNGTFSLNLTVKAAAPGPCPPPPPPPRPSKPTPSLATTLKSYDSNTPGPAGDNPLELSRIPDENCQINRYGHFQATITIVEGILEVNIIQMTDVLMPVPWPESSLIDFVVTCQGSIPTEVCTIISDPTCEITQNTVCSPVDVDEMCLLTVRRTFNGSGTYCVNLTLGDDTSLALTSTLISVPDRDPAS
Protocol: Plates were then blocked and washed. […] Plates were incubated for 1 h and washed. HRP-conjugated anti-FLAG M2 mAb (Sigma, St. Louis, Mo.) was added into the wells for 1 h, washed and the reaction developed with the TMB substrate reagent as described by the manufacturer (Pharmingen, San Jose, Calif.).

[4] = target: T3, CD3 on purified human T cells (human, UniProt P07766 23-207; P04234 22-171; P09693 23-182); assay: flow cytometry on purified human T cells, mouse anti-FLAG mAb and PE-conjugated goat anti-mouse Ig F(ab')2
T3 construct: also called human CD3 molecules

[5] = target: T2, Recombinant human GPNMB extra-cellular …; assay: Biacore, mAb captured on protein A
Protocol: Certain Hybridoma cell supernatants (29) were analyzed for binding to GPNMB by BiaCore® 2000 biosensor equipped with a research-grade CM5 sensor chip. A 1:25 dilution of cell supernatant was passed over a protein A surface for 5 min followed by washing the surface for 10 mins. […] GPNMB binding data for each mAb was normalized for the amount of mAb captured on each surface. Normalized, drift corrected responses were also measured. The sensorgrams were fit to a simple 1:1 kinetic model.

[6] = target: T1, GPNMB (CG56972) as expressed by human …; assay: cell-based or functional assay; remark: listed apart in the source
[7] = target: T1, GPNMB (CG56972) as expressed by human …; assay: cell-based or functional assay; remark: listed apart in the source
[8] = target: T1, GPNMB (CG56972) as expressed by human …; assay: cell-based or functional assay; remark: listed apart in the source
[9] = target: T1, GPNMB (CG56972) as expressed by human …; assay: cell-based or functional assay; remark: listed apart in the source
[10] = target: T1, GPNMB (CG56972) as expressed by human …; assay: cell-based or functional assay; remark: listed apart in the source

T3 sequence (P07766 23-207 limits assumed, chain 1 of 3): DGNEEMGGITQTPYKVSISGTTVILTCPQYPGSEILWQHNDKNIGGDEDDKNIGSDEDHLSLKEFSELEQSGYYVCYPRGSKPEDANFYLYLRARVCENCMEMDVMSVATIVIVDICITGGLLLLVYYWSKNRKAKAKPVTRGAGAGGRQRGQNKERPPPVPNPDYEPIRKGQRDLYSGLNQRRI
T3 sequence (P04234 22-171 limits assumed, chain 2 of 3): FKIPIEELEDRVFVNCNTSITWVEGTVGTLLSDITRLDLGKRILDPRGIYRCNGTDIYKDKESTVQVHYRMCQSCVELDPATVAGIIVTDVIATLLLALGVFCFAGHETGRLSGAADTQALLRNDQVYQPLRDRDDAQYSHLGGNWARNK
T3 sequence (P09693 23-182 limits assumed, chain 3 of 3): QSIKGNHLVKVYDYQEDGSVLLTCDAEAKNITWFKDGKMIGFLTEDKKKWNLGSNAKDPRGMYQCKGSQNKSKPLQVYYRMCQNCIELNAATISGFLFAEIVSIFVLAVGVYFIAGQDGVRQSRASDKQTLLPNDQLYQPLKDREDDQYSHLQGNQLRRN

B1: Mab2.22.1 (antibody, IgG2, V domains shown)
VH: QVQLEQSGPGLVKPSQNLSLTCTVSGGSISSGGYFWSWIRQHPGKGLEWIGYIYYSGNTYYNPSLKSRVTISVDTSKNQFSLKLSSVTAADTAVYYCARDYYYDTSGFSYRYDWYYGMDVWGQGTTVTVSS
VL: DIQLTQSPSSLSASVGDRVTITCRASQGIRNDLGWYQQKPGKAPKRLIYAASSLQNGVPSRFSGSGSGTEFTLTISSLQPEDFATYYCLQHNTYPAFGQGTKVEIKR
notes: Fully human hybridoma antibody (XenoMouse XMG2, IgG2 kappa); also called CR011.2.22.1
[1]
  killing of UACC-62 cells with saporin-conjugated secondary antibody (colony count): > 70%
[2]
  Geo Mean Ratio (relative to pK16): 4.46 ratio

B2: Mab2.10.2 (antibody, IgG2, V domains shown)
VH: QLVESGGGVVQPGRSLRLSCAASGFAFSSYGMHWVRQAPGKGLEWVAVISYDGNNKYYADSVKGRFTISRDNSKNTLYLQMNSLRAEDTAVYYCARDLVVRGIRGYYYYFGMDVWGQGTTVTVSS
VL: not shown
notes: Fully human hybridoma antibody (XenoMouse XMG2, IgG2 kappa); also called CR011.2.10.2
[1]
  killing of UACC-62 cells with saporin-conjugated secondary antibody (colony count): > 70%
[2]
  Geo Mean Ratio (relative to pK16): 2.6 ratio

B3: CR011 single chain antibody (CR011 scFv), VL-L4-VH, Flag tag (scFv)
scFv: EIVMTQSPATLSVSPGERATLSCRASQSVDNNLVWYQQKPGQAPRLLIYGASTRATGIPARFSGSGSGTEFTLTISSLQSEDFAVYYCQQYNNWPPWTFGQGTKVEIKLSADDAKKDAAKKDDAKKDDAKKDLQVQLQESGPGLVKPSQTLSLTCTVSGGSISSFNYYWSWIRHHPGKGLEWIGYIYYSGSTYSNPSLKSRVTISVDTSKNQFSLTLSSVTAADTAVYYCARGYNWNYFDYWGQGTLVTVSSASDYKDDDDK
notes: also called CR011 scFv monomer; mono-specific anti-GPNMB scFv
[3]
  binding result: binds
[4]
  binding result: no binding (tested: 5 ug/sample/100 ul)

B4: Mab1.2.2 (antibody, IgG2, V domains shown)
VH: ITLKESGPTLVKPTQTLTLTCTFSGFSLSAGGVGVGWIRQPPGKALEWLALIYWNDDKRYSPSLRSRLTITKDTSKNQVVLTITNMDPVDTATYYCAHSHYDYDWGSYFDYWGQGTLVTVSS
VL: DIVMTQTPLSLPVTPGEPASISCRSSQSLLDSDDGNTYLDWYLQKPGQSPQLLIYTLSYRASGVPDRFSGSGSGTDFTLNISRVEAEDVGVYYCMQRIEFPITFGQGTRLEIKR
notes: Fully human hybridoma antibody (XenoMouse XMG2, IgG2 kappa); also called CR011.1.2.2
[2]
  Geo Mean Ratio (relative to pK16): 1.24 ratio
[5]
  Kd: 96 nM
  koff: 0.00089 s⁻¹
  kon: 9260 M⁻¹ s⁻¹

B5: Mab1.7.1 (antibody, IgG2, V domains shown)
VH: QVQLQESGPGLVKPSQTLSLTCTVSGGSISSANYYWTWIRQHPGKGLEWIGYIYYSGSTYCNPSLKSRVIISVDTSKNQFSLKLSSVTAADTAVYYCARGYNWNYFDYWGQGTLVTVSS
VL: DIVMTQSPATLSVSPGERATLSCRASQSVSSNLAWYQERPGQAPRLLIYGASTRATGIPARFSGSGSGTEFTLTISSLQSEDFAVYYCQQYNKWPPWTFGQGTKVEIER
notes: Fully human hybridoma antibody (XenoMouse XMG2, IgG2 kappa)
[5]
  Kd: 122 nM
  koff: 0.00144 s⁻¹
  kon: 11800 M⁻¹ s⁻¹

B6: Mab1.10.2 (antibody, IgG2, V domains shown)
VH: QVQLQESGPGLVKPSETLSLTCTVSGDSISNYYWSWIRQPPGKGLEWIGYFYYSGSTNYNPSLKSRVTISVDTSKNQFSLKLSSVTAADTAVYYCARDRGWADYWGQGTLVTVSS
VL: EIVLTQSPGTLSLSPGERATLSCRTSQSISSSYLAWYQQKPGQVPRLLIYGASSRATGIPDRFSGSGSGTDFTLTISRLEPEDFAVYYCQQYGSSITFGQGTRLEIKR
notes: as for B5
[5]
  Kd: 118 nM
  koff: 0.000466 s⁻¹
  kon: 3960 M⁻¹ s⁻¹

B7: CR011-vcMMAE (antibody, human IgG2)
heavy: QVQLQESGPGLVKPSQTLSLTCTVSGGSISSFNYYWSWIRHHPGKGLEWIGYIYYSGSTYSNPSLKSRVTISVDTSKNQFSLTLSSVTAADTAVYYCARGYNWNYFDYWGQGTLVTVSSASTKGPSVFPLAPCSRSTSESTAALGCLVKDYFPEPVTVSWNSGALTSGVHTFPAVLQSSGLYSLSSVVTVPSSNFGTQTYTCNVDHKPSNTKVDKTVERKCCVECPPCPAPPVAGPSVFLFPPKPKDTLMISRTPEVTCVVVDVSHEDPEVQFNWYVDGVEVHNAKTKPREEQFNSTFRVVSVLTVVHQDWLNGKEYKCKVSNKGLPAPIEKTISKTKGQPREPQVYTLPPSREEMTKNQVSLTCLVKGFYPSDIAVEWESNGQPENNYKTTPPMLDSDGSFFLYSKLTVDKSRWQQGNVFSCSVMHEALHNHYTQKSLSLSPGK
VL: not shown
modifications: vcMMAE (maleimidocaproyl-valine-citrulline-monomethylauristatin E) on cysteine thiols of reduced disulfides, about 4 per antibody; positions not given
[6]
  Clonogenic Assay with 1.15.1-AE IC50, G361: 1050 ng/mL and 6500 pM
  Clonogenic Assay with 1.15.1-AE IC50, RPMI-7951: 972 ng/mL and 6000 pM
  Clonogenic Assay with 1.15.1-AE IC50, SK-Mel 2: 111 ng/mL and 750 pM
  Clonogenic Assay with 1.15.1-AE IC50, SK-Mel 5: 237 ng/mL and 1600 pM
  Clonogenic Assay with 1.15.1-AE IC50, UACC-62: 697 ng/mL and 4300 pM
  Clonogenic Assay with 1.15.1-AE IC50, UACC-257: 825 ng/mL and 5500 pM
  Clonogenic Assay with 1.15.1-AE IC50, WM-266-4: 345 ng/mL and 2300 pM
[7]
  IC50 of colony formation (clonogenic assay, % of control, 96 h) on HEK293 cells transfected with GPNMB (circles); Vector + CR011-vcMMAE (diamonds) is printed as >1000: 0.3 µg/mL
[8]
  Clonogenic Assay with 1.15.1-AE IC50, SR: 296 ng/mL and 2000 pM
  Clonogenic Assay with 1.15.1-AE IC50, THP-1: 207 ng/mL and 1400 pM
  Clonogenic Assay with 1.15.1-AE IC50, U937: 340 ng/mL and 2400 pM
[9]
  IC50 of colony formation (clonogenic assay, % of control) on SK-Mel-2 cells transfected with control siRNA (circles): 0.22 µg/mL
  IC50 of colony formation (clonogenic assay, % of control) on mock-transfected SK-Mel-2 cells (diamonds): 0.33 µg/mL
[10]
  CR011-AE IC50, clonogenic assay, SF-268 (weakly expressing): > 1.5 µg/mL
  CR011-AE IC50, clonogenic assay, SF-539: 1.03 µg/mL
  CR011-AE IC50, clonogenic assay, SK-MEL-2: 0.303 µg/mL
  CR011-AE IC50, clonogenic assay, SNB-78: 0.449 µg/mL
  CR011-AE IC50, clonogenic assay, U-118-MG: 1.25 µg/mL
  CR011-AE IC50, clonogenic assay, XF-498: 0.216 µg/mL
